This is an account of results in PMC12339742.

B1: PduP encapsulation peptide with its native linker fused to the N-terminus of mNeonGreen [Salmonella enterica] / itself (parent)
chain: MNTSELETLIRTILSEQLTTPAQTPVQPQGKGIFQS

Assay [1] covers variants of B1. The experiment in a line: turbidity measurement (self-assembly / condensation), NaCl titration. The conditions noted are these: with itself; value read at the lowest NaCl point (est. ~12-15 mM NaCl); parent: 0.45; read off a plot.
Assay [2] covers variants of B1. The experiment in a line: turbidity measurement (self-assembly / condensation), protein concentration titration. The conditions noted are these: with itself; value read at the third-highest protein concentration point (est. ~45 µM); parent: 0.45; read off a plot.

MNTSELETLSRTILSEQLTTPAQTPVQPQGKGIFQS: the response in assay [1] is 0.17.

Regarding MNTSELRTLIETILSEQLTTPAQTPVQPQGKGIFQS, the response in assay [1] is 0.51; in assay [2], 0.5.

For MNTSELDTLIRTILSEQLTTPAQTPVQPQGKGIFQS, the response in assay [1] stood at 0.37; in assay [2], 0.21.

With MNTSELETLIKTILSEQLTTPAQTPVQPQGKGIFQS, the response in assay [1] came out at 0.46; in assay [2], 0.39.

Regarding MNTSELETLIATILSEQLTTPAQTPVQPQGKGIFQS, the response in assay [1] was determined as 0.26; in assay [2] it was 0.21.
